These are literature values, as cited in PMC6484326.

For this data set, the target named is GPIIb-IIIa (Homo sapiens) (UniProt P08514).

For fibrinogen (from UniProt P02671), the Kd was 0.1 µM.
